Drawing on article PMC2063550, this text covers KCl concentration and stoichiometry N (eIF2α-NTD per PERK) for 2 substances.

In assay [1] the target is GST-PERK, wild-type PERK kinase domain fused to GST (active, autophosphorylated) (mouse) (UniProt Q9Z2B5). The experiment in a line: pull-down.
Assay [2] shares this target.

UniProt Q9Z2B5, sequence (Q9Z2B5 537-1114): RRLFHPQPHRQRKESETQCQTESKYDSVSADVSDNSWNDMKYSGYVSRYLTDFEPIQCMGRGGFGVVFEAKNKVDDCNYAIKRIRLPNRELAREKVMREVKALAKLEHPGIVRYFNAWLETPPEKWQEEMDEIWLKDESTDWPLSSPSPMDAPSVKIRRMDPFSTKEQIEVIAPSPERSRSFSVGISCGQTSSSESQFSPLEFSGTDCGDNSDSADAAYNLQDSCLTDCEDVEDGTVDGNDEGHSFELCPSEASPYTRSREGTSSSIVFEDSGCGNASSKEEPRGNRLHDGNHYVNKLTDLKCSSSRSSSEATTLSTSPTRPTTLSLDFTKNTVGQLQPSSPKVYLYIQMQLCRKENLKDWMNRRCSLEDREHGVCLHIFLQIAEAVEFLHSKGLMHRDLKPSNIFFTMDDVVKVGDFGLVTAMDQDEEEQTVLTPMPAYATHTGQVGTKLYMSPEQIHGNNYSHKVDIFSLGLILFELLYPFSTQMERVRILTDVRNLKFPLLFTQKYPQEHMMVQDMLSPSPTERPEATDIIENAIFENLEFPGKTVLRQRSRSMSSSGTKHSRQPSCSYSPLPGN

In assay [1], “eIF2α-NTD (NH2-terminal domain of eIF2α, residues 1-185, three solubilizing mutations, nonphosphorylated) (domain or fragment)” gave a KCl concentration at the peak of elution of 225 mM KCl. In assay [2], this substance came in with a stoichiometry N (eIF2α-NTD per PERK) of over 1.

Turning to “phosphorylated eIF2α-NTD (P–eIF2α-NTD, phosphorylated by PERK on serine 51) (domain or fragment)”, the KCl concentration at the peak of elution in assay [1] was 125 mM KCl.
